Read-outs that look alike come from different tables or passages of the source.
T1: sIL-6R (soluble IL-6 receptor; SBH Sciences) (human, UniProt P08887 20-365)
T1 construct: also called human IL-6R
T1 sequence: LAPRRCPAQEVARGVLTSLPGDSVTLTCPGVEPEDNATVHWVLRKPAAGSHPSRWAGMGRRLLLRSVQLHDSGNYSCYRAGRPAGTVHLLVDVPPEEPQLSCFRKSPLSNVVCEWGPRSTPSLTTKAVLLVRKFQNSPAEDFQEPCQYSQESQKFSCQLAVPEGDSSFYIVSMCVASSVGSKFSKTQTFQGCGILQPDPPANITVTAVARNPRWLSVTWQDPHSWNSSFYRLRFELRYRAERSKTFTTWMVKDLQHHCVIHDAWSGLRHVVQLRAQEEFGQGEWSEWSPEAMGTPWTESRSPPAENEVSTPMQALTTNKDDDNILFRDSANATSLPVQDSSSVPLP

T2: IL-6 receptor on DS-1 cells (ATCC CRL 11102) (UniProt P08887 20-468, limits assumed)
T2 sequence (looked up): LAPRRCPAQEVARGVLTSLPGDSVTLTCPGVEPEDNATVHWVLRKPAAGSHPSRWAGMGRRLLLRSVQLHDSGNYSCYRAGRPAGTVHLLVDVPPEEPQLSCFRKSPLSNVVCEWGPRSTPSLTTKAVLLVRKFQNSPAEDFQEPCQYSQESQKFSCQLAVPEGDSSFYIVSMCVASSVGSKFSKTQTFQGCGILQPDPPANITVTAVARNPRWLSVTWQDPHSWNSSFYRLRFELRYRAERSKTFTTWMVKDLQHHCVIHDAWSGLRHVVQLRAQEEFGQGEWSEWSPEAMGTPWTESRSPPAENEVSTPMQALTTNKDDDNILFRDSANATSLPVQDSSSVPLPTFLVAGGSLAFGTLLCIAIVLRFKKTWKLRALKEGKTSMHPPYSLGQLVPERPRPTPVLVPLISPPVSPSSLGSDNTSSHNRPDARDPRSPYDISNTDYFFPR


Experiments:
[1] = molecular target: T1, sIL-6R (soluble IL-6 receptor; SBH …); assay: SPR (BIAcore 3000), antibody on chip, sIL-6R analyte, pH 7.4
Method: (§1) All SPR measurements were performed on a BIAcore 3000 instrument (GE Biosciences, Piscataway, N.J.). BIAcore Software-BIAcore 3000 Control Software V3.2 was used for the operation and control of the BIAcore 3000 instrument. BiaEvaluation Software V4.1 was used for the analysis of SPR data from the BIAcore 3000 instrument and data was plotted using Graph Pad Prism Software Version 5. […] The indicated antibodies were used as the ligand for the construction of the reference channel of the chip. […] Each sample was injected for 3 min at a flow rate of 30 μL/min to allow for binding to chip-bound antibody. Next, binding buffer without analyte was sent over the chip at the same flow rate to allow for dissociation of bound analyte. After 500s, remaining bound analyte was removed by injecting regeneration solution (1M Formic acid). Data was analyzed by using the Kinetics Wizard and the manual fitting programs that are both included with the BiaEvaluation Software V4.1.
(§2) SPR measurements at pH 7.4 and pH 6.0 were performed in parallel and KD values calculated according to the protocol as detailed in Example 1. The pH dependence is calculated as the ratio between the KD value at pH 6.0 and the KD value at pH 7.4, which indicates the fold of affinity decrease from the pH7.4 to pH6.0. If the pH dependence of a subject antibody described herein is over 1, it means that the antibody binds to IL-6R in such a pH-dependent manner that its binding to IL-6R at pH7.4 is higher than at pH6.0. If the pH dependence of a subject antibody described herein is lower than 1, it means that the antibody binds to IL-6R in such a pH-dependent manner that its binding to IL-6R at pH6.0 is higher than at pH7.4.

[2] = molecular target: T2, IL-6 receptor on DS-1 cells (ATCC CRL …); assay: cell-based or functional assay
[3] = molecular target: T1, sIL-6R (soluble IL-6 receptor; SBH …); assay: SPR (BIAcore 3000), antibody on chip, sIL-6R analyte, 25 C
Method: as §1

[4] = molecular target: T1, sIL-6R (soluble IL-6 receptor; SBH …); assay: SPR (BIAcore 3000), antibody on chip, sIL-6R analyte, pH 7.4; pH 7.4
Method: as §1
(§3) SPR measurements at pH 7.4 and pH 6.0 were performed in parallel and KD values calculated according to the protocol as detailed in Example 1. The pH dependence is calculated as the ratio between the KD value at pH 6.0 and the KD value at pH 7.4, which indicates the fold of affinity decrease from the pH7.4 to pH6.0. […]

[5] = molecular target: T1, sIL-6R (soluble IL-6 receptor; SBH …); assay: SPR (BIAcore 3000), antibody on chip, sIL-6R analyte, pH 6.0
Method: as §1, §2

[6] = molecular target: T1, sIL-6R (soluble IL-6 receptor; SBH …); assay: SPR (BIAcore 3000), antibody on chip, sIL-6R analyte, 25 C; remark: listed apart in the source
Method: as §1

[7] = molecular target: T1, sIL-6R (soluble IL-6 receptor; SBH …); assay: as above; remark: listed apart in the source
Method: as §1

[8] = molecular target: T1, sIL-6R (soluble IL-6 receptor; SBH …); assay: SPR; ratio of KD at pH 6.0 to KD at pH 7.4; averaged between the two batches
Method: as §1, §3

[9] = molecular target: T1, sIL-6R (soluble IL-6 receptor; SBH …); assay: SPR (BIAcore 3000), antibody on chip, sIL-6R analyte, pH 7.4; pH 7.4; remark: listed apart in the source
[10] = molecular target: T1, sIL-6R (soluble IL-6 receptor; SBH …); assay: SPR (BIAcore 3000), antibody on chip, sIL-6R analyte, 25 C; remark: listed apart in the source
Method: as §1

[11] = molecular target: T1, sIL-6R (soluble IL-6 receptor; SBH …); assay: SPR (BIAcore 3000), antibody on chip, sIL-6R analyte, pH 6.0; remark: listed apart in the source
Method: as §1, §2

[12] = molecular target: T1, sIL-6R (soluble IL-6 receptor; SBH …); assay: SPR (BIAcore 3000), antibody on chip, sIL-6R analyte, pH 7.4; remark: listed apart in the source
Method: as §1, §2

[13] = molecular target: T1, sIL-6R (soluble IL-6 receptor; SBH …); assay: SPR (BIAcore 3000), antibody on chip, sIL-6R analyte, 25 C; remark: listed apart in the source
How it was run: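 Antibody immobilized on chip, sIL-6R injected as analyte for 3 min at 30 μL/min, then buffer-only dissociation for 500 s. Surface regenerated with 1M formic acid between cycles. Kinetics obtained by fitting sensorgrams with Kinetics Wizard and manual fitting.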

[14] = molecular target: T1, sIL-6R (soluble IL-6 receptor; SBH …); assay: SPR; ratio of KD at pH 6.0 to KD at pH 7.4
Method: as §1, §2

| IC50 (µg/ml), inhibition of DS-1 cell proliferation, MTS assay, IL6 2 ng/mL [2] | Kd [3] | Relative Affinity [3] | koff [3] | kon [3] | Kd [5] | koff [5] | kon [5] | Kd [6] | Relative Affinity [6] | koff [6] | kon [6] | Kd [12] | koff [12] | pH dependence (Fold of affinity decrease) [14] | kon [12] | Binder | other results |
| --- | --- | --- | --- | --- | --- | --- | --- | --- | --- | --- | --- | --- | --- | --- | --- | --- | --- |
| 0.33 µg/mL | 2.8 nM | 1 fold vs 25 (Tocilizumab) | 0.00035 s⁻¹ | 125000 M⁻¹ s⁻¹ | 2 nM | 0.000564 s⁻¹ | 283000 M⁻¹ s⁻¹ | 2.85 nM | 1 fold vs 25 (Tocilizumab) | 0.000349 s⁻¹ | 122000 M⁻¹ s⁻¹ | 2.85 nM | 0.000349 s⁻¹ |  |  | Tocilizumab (antibody, human IgG1, kappa, V domains shown, also called 25; 25(control)) VH: QVQLQESGPGLVRPSQTLSLTCTVSGYSITSDHAWSWVRQPPGRGLEWIGYISYSGITTYNPSLKSRVTMLRDTSKNQFSLRLSSVTAADTAVYYCARSLARTTAMDYWGQGSLVTVSS VL: DIQMTQSPSSLSASVGDRVTITCRASQDISSYLNWYQQKPGKAPKLLIYYTSRLHSGVPSRFSGSGSGTDFTFTISSLQPEDIATYYCQQGNTLPYTFGQGTKVEIKR | koff [1]: 0.000341 s⁻¹; kon [1]: 108000 M⁻¹ s⁻¹; kon [4]: 122000 M⁻¹ s⁻¹; Kd [7]: 1.34 nM; Relative Affinity [7]: 1 fold vs 25 (Tocilizumab); koff [7]: 0.000252 s⁻¹; kon [7]: 188000 M⁻¹ s⁻¹; pH dependence (Fold of affinity decrease) [8]: 0.48 fold; Kd [9]: 3.16 nM; Kd [10]: 1.71 nM; Relative Affinity [10]: 1 fold vs 25 (Tocilizumab); koff [10]: 0.000353 s⁻¹; kon [10]: 207000 M⁻¹ s⁻¹; Kd [11]: 1.79 nM; koff [11]: 0.000566 s⁻¹; kon [11]: 316000 M⁻¹ s⁻¹; Kd [13]: 3.16 nM; Relative Affinity [13]: 1 fold vs 25 (Tocilizumab); koff [13]: 0.000341 s⁻¹; kon [13]: 108000 M⁻¹ s⁻¹ |
| 0.0686 µg/mL | 0.0236 nM | 119 fold vs 25 (Tocilizumab) | 3.17e-06 s⁻¹ | 134000 M⁻¹ s⁻¹ | 0.0214 nM | 6.1e-06 s⁻¹ | 284000 M⁻¹ s⁻¹ | 0.0288 nM | 99 fold vs 25 (Tocilizumab) | 2.46e-06 s⁻¹ | 85300 M⁻¹ s⁻¹ | 0.0288 nM | 2.46e-06 s⁻¹ | 0.74 fold | 85300 M⁻¹ s⁻¹ | 202# (antibody, human IgG1, kappa, V domains shown) VH: QVQLQESGPGLVRPSQTLSLTCTVSGYSITSDHAWSWVRQPPGRGLEWIGYISYSGITTYNPSLKSRVTMLRDTSKNQFSLRLSSVTAADTAVYYCARVLARITAMDYWGQGSLVTVSS VL: DIQMTQSPSSLSASVGDRVTITCRASQDISSYLNWYQQKPGKAPKLLIYYTSRLHSGVPSRFSGSGSGTDFTFTISSLQPEDIATYYCGQGNRLPYTFGQGTKVEIKR |  |
| 0.0339 µg/mL | 0.000587 nM | 4770 fold vs 25 (Tocilizumab) | 1.35e-07 s⁻¹ | 230000 M⁻¹ s⁻¹ | 0.0213 nM | 8.78e-06 s⁻¹ | 412000 M⁻¹ s⁻¹ | 0.00075 nM | 3800 fold vs 25 (Tocilizumab) | 1.41e-07 s⁻¹ | 189000 M⁻¹ s⁻¹ | 0.00075 nM | 1.41e-07 s⁻¹ | 28.4 fold | 189000 M⁻¹ s⁻¹ | 206# (antibody, human IgG1, kappa, V domains shown, also called Sample # 206) VH: QVQLQESGPGLVRPSQTLSLTCTVSGYSITSDHAWSWVRQPPGRGLEWIGFISYSGMTTYNPSLKSRVTMLRDTSKNQFSLRLSSVTAADTAVYYCARSLARITAMDYWGQGSLVTVSS VL: DIQMTQSPSSLSASVGDRVTITCRASQDISSYLNWYQQKPGKAPKLLIYYTSRLHSGVPSRFSGSGSGTDFTFTISSLQPEDIATYYCGQGNRLPYTFGQGTKVEIKR |  |

Source: US20190315854A1 (BEIJING VDJBIO, published 2019)
